In experiment [1] the target is low density lipoprotein receptor-related protein 1 (LRP1), full-length (UniProt Q07954 20-4544). The experiment can be described thus: cell-based or functional assay.
A further experiment has as its target T1, ADAM17 ectodomain (UniProt P78536 215-671).
T1 construct: ADAM17, ectodomain; source: gift from Professor Gillian Murphy (University of Cambridge)
The experiment can be described thus: enzyme inhibition under equilibrium conditions (Ki(app), tight binding equation); apparent; ADAM17 preincubated with wild-type or mutant TIMP-3 (0.25-25 nM) 1 h at 37 °C, residual activity on a fluorescence-quenched substrate; 50 mM Tris-HCl pH 7.5, 25 mM NaCl, 10 mM CaCl2, 0.05% Brij 35, 0.02% NaN3. As to conditions: both partners purified.

Experiment [2] has as its target T2, catalytic domain of MMP-1 (MMP-1ΔC) (UniProt P03956 100-269).
T2 construct: MMP-1, catalytic domain
T2 sequence (looked up): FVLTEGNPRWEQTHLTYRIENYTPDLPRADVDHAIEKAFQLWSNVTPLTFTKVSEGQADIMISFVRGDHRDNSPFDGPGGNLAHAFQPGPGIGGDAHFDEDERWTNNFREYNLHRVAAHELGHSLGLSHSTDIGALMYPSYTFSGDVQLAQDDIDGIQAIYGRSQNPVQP
The experiment can be described thus: enzyme inhibition under equilibrium conditions (Ki(app), tight binding equation); apparent; metalloproteinase (0.5-1 nM) preincubated with wild-type or mutant TIMP-3 (0.25-25 nM) 1 h at 37 °C, residual activity on fluorescence-quenched substrates; 50 mM Tris-HCl pH 7.5, 150 mM NaCl, 10 mM CaCl2, 0.05% Brij 35, 0.02% NaN3. As to conditions: both partners purified.

The target of experiment [3] is T3, catalytic domain of MMP-2 (MMP-2ΔC) (UniProt P08253 110-444).
T3 construct: MMP-2, catalytic domain
Described as above. As to conditions: both partners purified.

Experiment [4] concerns the target T4, catalytic domain of MMP-3 (MMP-3ΔC) (UniProt P08254 100-272).
T4 construct: MMP-3, catalytic domain
Described as above. Conditions: both partners purified.

The target in experiment [5] is T5, ADAMTS-4 lacking the C-terminal spacer domain (UniProt O75173 213-685).
T5 construct: ADAMTS-4 without its C-terminal spacer domain
T5 sequence (looked up): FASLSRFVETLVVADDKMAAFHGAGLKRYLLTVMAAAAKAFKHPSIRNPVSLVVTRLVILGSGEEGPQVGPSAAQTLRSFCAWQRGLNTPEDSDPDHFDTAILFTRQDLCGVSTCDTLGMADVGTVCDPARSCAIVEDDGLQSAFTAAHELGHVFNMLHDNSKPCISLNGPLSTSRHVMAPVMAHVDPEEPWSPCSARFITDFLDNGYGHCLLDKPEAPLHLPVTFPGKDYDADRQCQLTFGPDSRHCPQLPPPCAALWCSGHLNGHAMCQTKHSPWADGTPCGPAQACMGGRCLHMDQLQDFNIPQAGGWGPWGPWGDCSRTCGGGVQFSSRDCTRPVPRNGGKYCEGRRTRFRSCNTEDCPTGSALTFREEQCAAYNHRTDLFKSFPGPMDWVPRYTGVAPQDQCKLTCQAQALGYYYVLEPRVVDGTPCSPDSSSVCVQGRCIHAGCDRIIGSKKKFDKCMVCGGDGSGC
The description is as above. Conditions: both partners purified.

Experiment [6] concerns the target T6, ADAMTS-5 lacking the C-terminal thrombospondin domain (UniProt Q9UNA0 262-874).
T6 construct: ADAMTS-5 without its C-terminal thrombospondin domain
T6 sequence (looked up): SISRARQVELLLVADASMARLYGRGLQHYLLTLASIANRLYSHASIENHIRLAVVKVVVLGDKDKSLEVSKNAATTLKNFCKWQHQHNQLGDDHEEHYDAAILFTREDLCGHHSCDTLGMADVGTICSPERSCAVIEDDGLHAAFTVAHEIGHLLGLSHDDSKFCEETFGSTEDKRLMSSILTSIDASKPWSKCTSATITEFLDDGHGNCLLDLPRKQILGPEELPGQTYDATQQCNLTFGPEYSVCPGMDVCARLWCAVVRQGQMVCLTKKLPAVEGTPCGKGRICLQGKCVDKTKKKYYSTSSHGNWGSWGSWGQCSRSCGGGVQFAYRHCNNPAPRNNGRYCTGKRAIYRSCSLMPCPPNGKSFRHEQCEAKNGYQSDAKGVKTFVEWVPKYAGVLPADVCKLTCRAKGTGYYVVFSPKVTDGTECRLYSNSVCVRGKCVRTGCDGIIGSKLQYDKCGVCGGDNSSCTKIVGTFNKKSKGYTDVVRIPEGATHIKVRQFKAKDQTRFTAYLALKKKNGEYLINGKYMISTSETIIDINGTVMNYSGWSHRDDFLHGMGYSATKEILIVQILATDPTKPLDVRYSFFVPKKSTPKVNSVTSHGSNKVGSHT
Described as above. As to conditions: both partners purified.

In experiment [7] the target is T6, ADAMTS-5 lacking the C-terminal …. The experiment in a line: enzyme inhibition under equilibrium conditions (Ki(app), tight binding equation); apparent; ADAMTS-5 (0.5 nM) preincubated with TIMP-3 (0.5-10 nM) with heparin (100 nM) 1 h at 37 °C, residual activity 18 h at 37 °C; 50 mM Tris-HCl pH 7.5, 150 mM NaCl, 10 mM CaCl2, 0.05% Brij 35, 0.02% NaN3. As to conditions: both partners purified.

Chain of low density lipoprotein receptor-related protein 1 (LRP1), full-length (Q07954 20-4544): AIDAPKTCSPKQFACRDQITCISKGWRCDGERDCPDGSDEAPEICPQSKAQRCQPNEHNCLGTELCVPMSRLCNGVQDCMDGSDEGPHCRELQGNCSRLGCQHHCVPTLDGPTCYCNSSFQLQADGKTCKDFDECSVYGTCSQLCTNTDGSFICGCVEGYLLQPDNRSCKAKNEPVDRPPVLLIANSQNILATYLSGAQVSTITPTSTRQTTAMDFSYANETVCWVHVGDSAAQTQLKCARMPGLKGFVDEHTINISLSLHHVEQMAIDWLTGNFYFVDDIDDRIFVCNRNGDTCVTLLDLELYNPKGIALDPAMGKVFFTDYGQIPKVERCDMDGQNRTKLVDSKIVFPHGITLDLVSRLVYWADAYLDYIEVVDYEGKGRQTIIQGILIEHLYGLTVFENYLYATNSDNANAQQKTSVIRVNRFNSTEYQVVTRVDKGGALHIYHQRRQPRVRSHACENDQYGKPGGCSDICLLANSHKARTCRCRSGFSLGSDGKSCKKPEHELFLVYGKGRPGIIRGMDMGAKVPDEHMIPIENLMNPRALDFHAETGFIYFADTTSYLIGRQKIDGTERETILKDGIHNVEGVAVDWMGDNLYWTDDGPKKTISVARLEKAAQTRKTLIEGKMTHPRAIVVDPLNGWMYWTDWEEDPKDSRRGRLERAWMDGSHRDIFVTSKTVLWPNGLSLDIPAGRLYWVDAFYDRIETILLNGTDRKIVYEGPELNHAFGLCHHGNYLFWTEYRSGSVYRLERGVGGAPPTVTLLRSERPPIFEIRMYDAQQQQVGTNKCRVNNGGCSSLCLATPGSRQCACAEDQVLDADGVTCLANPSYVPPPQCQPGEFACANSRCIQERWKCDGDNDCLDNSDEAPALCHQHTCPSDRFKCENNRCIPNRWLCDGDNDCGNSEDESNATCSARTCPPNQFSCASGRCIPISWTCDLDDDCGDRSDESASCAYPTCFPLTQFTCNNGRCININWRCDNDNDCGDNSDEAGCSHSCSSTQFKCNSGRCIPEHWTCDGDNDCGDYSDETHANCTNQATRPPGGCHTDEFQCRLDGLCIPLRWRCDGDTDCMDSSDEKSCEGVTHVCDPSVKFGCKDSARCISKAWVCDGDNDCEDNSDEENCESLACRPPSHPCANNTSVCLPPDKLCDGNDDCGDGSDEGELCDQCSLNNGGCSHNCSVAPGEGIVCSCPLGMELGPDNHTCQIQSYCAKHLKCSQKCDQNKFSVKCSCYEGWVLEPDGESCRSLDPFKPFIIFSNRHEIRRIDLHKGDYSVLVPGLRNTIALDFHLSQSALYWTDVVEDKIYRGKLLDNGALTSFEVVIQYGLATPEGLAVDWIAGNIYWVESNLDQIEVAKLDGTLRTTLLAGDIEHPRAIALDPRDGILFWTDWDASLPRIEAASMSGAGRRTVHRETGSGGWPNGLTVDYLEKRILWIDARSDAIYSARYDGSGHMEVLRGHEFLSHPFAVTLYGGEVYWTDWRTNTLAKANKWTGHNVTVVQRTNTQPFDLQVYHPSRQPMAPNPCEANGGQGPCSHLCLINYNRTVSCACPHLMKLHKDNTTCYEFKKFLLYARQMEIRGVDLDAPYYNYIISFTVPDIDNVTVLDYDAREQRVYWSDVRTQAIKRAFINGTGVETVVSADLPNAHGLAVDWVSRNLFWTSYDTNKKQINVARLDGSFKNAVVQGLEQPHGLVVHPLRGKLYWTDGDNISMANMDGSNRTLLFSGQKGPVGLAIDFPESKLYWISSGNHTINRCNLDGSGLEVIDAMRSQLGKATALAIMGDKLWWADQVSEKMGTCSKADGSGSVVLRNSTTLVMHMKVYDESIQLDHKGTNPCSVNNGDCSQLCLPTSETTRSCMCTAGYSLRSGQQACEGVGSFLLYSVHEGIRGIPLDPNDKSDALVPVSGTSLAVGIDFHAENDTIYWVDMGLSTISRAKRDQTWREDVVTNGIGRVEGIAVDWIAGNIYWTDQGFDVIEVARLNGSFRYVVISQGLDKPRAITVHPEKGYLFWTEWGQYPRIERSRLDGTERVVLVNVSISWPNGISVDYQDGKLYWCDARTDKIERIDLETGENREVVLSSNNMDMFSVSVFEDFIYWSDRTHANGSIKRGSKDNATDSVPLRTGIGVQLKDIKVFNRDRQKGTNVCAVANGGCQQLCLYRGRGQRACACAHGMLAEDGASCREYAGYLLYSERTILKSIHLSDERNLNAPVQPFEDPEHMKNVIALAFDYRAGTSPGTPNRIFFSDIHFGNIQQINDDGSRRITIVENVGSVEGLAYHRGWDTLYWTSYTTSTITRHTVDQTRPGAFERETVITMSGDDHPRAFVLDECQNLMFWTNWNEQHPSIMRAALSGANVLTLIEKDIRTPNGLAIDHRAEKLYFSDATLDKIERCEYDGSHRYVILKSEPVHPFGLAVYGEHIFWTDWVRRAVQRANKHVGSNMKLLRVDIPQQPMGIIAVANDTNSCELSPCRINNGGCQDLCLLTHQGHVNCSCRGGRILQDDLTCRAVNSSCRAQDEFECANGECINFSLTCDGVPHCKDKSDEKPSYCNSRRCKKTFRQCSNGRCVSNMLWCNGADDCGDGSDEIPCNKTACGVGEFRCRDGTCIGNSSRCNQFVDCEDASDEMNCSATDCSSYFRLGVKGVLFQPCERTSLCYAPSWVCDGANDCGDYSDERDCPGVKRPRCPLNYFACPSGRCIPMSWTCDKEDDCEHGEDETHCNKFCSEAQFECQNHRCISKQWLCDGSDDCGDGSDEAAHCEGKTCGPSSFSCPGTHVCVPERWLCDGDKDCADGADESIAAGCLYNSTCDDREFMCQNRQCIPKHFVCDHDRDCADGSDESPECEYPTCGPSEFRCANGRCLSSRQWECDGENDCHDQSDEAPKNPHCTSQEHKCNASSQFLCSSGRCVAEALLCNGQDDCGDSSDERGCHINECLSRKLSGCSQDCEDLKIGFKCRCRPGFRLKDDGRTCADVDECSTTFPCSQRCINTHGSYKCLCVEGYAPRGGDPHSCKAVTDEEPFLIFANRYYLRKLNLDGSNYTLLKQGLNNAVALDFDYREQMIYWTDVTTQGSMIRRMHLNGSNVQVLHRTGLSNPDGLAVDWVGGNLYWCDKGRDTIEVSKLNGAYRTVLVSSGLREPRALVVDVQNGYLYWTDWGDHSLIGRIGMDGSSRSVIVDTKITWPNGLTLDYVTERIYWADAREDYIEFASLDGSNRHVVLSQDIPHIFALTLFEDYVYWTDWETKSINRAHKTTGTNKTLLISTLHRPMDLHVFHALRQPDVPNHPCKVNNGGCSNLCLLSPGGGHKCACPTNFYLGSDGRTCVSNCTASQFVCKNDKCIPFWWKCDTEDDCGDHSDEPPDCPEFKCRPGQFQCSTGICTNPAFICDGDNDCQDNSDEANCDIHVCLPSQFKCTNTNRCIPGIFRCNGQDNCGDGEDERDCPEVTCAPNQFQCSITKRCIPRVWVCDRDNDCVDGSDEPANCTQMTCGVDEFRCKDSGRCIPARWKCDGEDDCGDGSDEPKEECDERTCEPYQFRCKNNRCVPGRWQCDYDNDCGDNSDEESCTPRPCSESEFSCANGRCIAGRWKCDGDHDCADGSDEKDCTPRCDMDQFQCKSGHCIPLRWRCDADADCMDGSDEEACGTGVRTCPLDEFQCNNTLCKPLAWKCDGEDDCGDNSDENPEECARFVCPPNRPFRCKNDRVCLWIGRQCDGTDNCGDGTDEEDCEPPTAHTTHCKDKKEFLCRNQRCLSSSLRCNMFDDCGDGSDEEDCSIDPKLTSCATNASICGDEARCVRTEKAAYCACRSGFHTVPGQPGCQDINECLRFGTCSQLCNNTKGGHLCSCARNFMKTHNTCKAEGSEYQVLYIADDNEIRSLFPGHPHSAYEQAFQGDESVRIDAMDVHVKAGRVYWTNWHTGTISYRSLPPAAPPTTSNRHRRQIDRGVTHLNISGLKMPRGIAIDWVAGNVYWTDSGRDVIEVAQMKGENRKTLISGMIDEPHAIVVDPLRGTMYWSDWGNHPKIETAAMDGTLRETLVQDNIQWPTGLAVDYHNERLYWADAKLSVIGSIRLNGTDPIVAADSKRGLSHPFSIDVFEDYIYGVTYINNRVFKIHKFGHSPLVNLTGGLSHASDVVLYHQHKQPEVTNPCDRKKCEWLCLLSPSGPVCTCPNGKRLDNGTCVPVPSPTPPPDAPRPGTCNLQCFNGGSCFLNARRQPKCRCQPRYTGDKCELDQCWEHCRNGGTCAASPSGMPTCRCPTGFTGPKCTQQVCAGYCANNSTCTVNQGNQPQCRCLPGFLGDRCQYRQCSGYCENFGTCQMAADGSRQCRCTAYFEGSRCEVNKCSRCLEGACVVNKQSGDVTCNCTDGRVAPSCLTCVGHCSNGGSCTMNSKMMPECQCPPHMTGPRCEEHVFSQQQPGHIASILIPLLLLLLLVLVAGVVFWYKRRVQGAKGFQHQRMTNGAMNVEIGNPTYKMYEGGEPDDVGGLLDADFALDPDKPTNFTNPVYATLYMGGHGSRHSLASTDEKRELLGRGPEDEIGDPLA
T4 sequence (P08254 100-272, stated change not applied): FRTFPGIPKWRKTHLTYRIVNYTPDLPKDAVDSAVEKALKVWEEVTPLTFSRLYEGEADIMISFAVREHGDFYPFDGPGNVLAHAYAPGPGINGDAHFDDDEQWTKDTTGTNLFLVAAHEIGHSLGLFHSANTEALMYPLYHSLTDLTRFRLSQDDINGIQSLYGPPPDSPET
T3 sequence (P08253 110-444, stated change not applied): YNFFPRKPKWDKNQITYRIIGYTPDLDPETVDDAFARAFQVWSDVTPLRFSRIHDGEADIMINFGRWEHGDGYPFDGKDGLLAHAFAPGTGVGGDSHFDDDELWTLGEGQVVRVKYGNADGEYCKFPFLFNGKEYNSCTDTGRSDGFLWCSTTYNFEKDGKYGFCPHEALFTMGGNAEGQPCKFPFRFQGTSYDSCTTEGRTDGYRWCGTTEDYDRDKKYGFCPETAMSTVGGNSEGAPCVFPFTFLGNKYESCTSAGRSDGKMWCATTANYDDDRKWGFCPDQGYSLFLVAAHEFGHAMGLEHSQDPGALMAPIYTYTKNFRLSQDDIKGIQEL

B1: wild-type TIMP-3 (tissue inhibitor of metalloproteinases-3), C-terminally FLAG-tagged (natural protein, UniProt P35625 24-211, looked up)
chain: CTCSPSHPQDAFCNSDIVIRAKVVGKKLVKEGPFGTLVYTIKQMKMYRGFTKMPHVQYIHTEASESLCGLKLEVNKYQYLLTGRVYDGKMYTGLCNFVERWDQLTLSQRKGLNYRYHLGCNCKIKSCYYLPCFVTSKNECLWTDMLSNFGYPGYQSKHYACIRQKGGYCSWYRGWAPPDKSIINATDP
notes: TIMP-3, secreted into the conditioned medium; source: for the screen also transiently transfected, conditioned medium dialyzed against TBS; not shown: FLAG, C-terminal, kept
Turning to B1, in experiment [1], the “half-life of loss from the medium of HTB94 chondrosarcoma cells (1 nM, 0-24 h, anti-FLAG immunoblot and densitometry)” value stood at 3.6 h. Further, the “half-life of uptake from the medium of LRP1 wild-type PEA10 cells (1 nM, 0-8 h); remained at the same level in the medium of LRP1-null PEA13 cells” value in experiment [1] worked out at 1.9 h. Further, the Ki in the experiment with ADAM17 ectodomain came out at 3.54 nM; in experiment [2] it was 1.2 nM; in experiment [3] it was 0.6 nM; in experiment [4] it was 1.2 nM; in experiment [5], 0.19 nM; in experiment [6], 1.27 nM.

B2: TIMP-3 K42A/K110A, C-terminally FLAG-tagged (natural protein, UniProt P35625 24-211, looked up)
chain: CTCSPSHPQDAFCNSDIVIRAKVVGKKLVKEGPFGTLVYTIAQMKMYRGFTKMPHVQYIHTEASESLCGLKLEVNKYQYLLTGRVYDGKMYTGLCNFVERWDQLTLSQRAGLNYRYHLGCNCKIKSCYYLPCFVTSKNECLWTDMLSNFGYPGYQSKHYACIRQKGGYCSWYRGWAPPDKSIINATDP
notes: TIMP-3, secreted into the conditioned medium; The discussion once calls this mutant K45A/K110A; source: for the screen also transiently transfected, conditioned medium dialyzed against TBS; not shown: FLAG, C-terminal, kept
Take B2: the Ki in experiment [7] came out at 1.2 nM; with ADAM17 ectodomain, 2.34 nM; in experiment [2], 0.6 nM; in experiment [3], 0.6 nM; in experiment [4], 1.4 nM; in experiment [5], 0.24 nM. For the same molecule, the Ki in experiment [6] stood at 1.12 nM.

The values are drawn from PMC5063997, “Engineered Tissue Inhibitor of Metalloproteinases-3 Variants Resistant to Endocytosis Have Prolonged Chondroprotective Activity*” (The Journal of Biological Chemistry, 2016).
